Molecular target: Cnidoin fragment (residues 150 to 419) with N-terminal ybbR tag and C-terminal type I dockerin-histidine tag (Hydra magnipapillata | not stated)
Assay: AFM single molecule force spectroscopy; Cnidoin-dockerin construct attached covalently by its ybbR tag to a coenzyme A glass surface; CBM A2C-Cohesin on the cantilever tip; 25 mM Tris, 72 mM NaCl, pH 7.2, 1 mM CaCl2, 10 mM DTT; pulling speeds 200 nm/s to 6,400 nm/s

rupture force: 100 pN
Substance: CBM A2C-Cohesin from Clostridium thermocellum (domain or fragment)

From article PMC4321713
